Our source for the Kd values is paper PMC7159904.

The target of this experiment is Dispatched-yellow fluorescent protein (YFP) (D. melanogaster) (UniProt Q9VNJ5). Put plainly: MST.
UniProt Q9VNJ5, sequence (Q9VNJ5 whole entry): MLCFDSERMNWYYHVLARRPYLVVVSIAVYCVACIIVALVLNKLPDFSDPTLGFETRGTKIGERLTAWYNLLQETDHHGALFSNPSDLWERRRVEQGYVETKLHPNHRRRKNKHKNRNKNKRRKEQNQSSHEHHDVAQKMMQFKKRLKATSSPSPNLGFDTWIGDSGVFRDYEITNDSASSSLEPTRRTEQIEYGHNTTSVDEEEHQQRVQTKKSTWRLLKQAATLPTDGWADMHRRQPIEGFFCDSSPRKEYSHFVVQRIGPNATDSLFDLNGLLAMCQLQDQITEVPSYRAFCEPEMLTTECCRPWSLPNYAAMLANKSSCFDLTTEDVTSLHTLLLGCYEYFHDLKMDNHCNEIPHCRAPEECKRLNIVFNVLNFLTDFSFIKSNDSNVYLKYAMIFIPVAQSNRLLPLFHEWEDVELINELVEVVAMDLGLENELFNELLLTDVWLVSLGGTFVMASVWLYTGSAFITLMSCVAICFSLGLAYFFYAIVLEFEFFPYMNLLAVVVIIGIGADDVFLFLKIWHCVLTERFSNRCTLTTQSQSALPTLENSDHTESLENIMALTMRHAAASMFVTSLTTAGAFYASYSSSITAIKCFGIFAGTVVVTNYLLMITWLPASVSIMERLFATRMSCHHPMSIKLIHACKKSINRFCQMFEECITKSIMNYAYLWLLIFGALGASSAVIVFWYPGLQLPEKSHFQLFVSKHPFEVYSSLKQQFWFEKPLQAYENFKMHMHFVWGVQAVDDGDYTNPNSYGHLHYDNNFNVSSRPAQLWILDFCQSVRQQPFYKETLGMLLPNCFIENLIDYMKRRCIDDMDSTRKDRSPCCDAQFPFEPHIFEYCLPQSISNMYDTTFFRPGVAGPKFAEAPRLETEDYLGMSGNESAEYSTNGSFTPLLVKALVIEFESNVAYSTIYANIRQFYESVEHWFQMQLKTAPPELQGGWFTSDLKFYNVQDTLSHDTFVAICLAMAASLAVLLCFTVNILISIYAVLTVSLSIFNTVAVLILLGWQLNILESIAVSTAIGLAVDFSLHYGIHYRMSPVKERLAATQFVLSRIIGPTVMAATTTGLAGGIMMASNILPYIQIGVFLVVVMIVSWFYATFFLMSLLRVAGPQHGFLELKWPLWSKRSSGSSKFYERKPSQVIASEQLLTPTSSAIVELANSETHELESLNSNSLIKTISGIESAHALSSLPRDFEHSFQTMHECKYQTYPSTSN

For the substance “modified D. melanogaster hedgehog N-terminal fragment HhN_(C85II) (from UniProt Q02936 85-257) (ligand)”, the Kd – broadly, the free concentration of one partner at which half of the binding sites on the other are occupied at equilibrium, for simple one-to-one binding – was 6.2 µM.
